Results published in the supplement of paper PMC9112550, “Optimization of the antimicrobial peptide Bac7 by deep mutational scanning” (BMC Biology, 2022).

What follows are sequences tested on Escherichia coli TOP10 (assay: shrunken log2 fold change of peptide-encoding DNA abundance (4.5 h post-induction vs induction); higher = less antimicrobial activity (less host growth inhibition)). Conditions: time post-induction: 4.5 h; library: site-saturation at positions 5, 18, 19, 20.
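Note: peptides expressed intracellularly from a pBAD plasmid library in pooled LB shake-flask culture, induced with 0.3% L-arabinose, DNA abundance read by NGS, three biological replicates, DESeq2 with apeglm shrinkage.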

Row | Sequence | shrunken log2 fold change
1 | RRIRIRPPRLPRPRPRPEHQPRP | -0.0287
2 | RRIRIRPPRLPRPRPRPSKSPRP | -0.413
3 | RRIRRRPPRLPRPRPRPFQYPRP | -0.0414
4 | RRIRCRPPRLPRPRPRPQMQPRP | -0.347
5 | RRIRMRPPRLPRPRPRPCANPRP | -0.0263
6 | RRIRRRPPRLPRPRPRPFSCPRP | 0.082
7 | RRIRCRPPRLPRPRPRPGVGPRP | 0.455
8 | RRIRPRPPRLPRPRPRPAGRPRP | 0.395
9 | RRIRFRPPRLPRPRPRPGWMPRP | -0.0518
10 | RRIRSRPPRLPRPRPRPNASPRP | 0.233
11 | RRIRDRPPRLPRPRPRPVEFPRP | -0.0374
12 | RRIRGRPPRLPRPRPRPIVPPRP | 0.02
13 | RRIRHRPPRLPRPRPRPGMIPRP | -0.187
14 | RRIRERPPRLPRPRPRPHPKPRP | 0.0177
15 | RRIRKRPPRLPRPRPRPMCGPRP | 0.0595
16 | RRIRTRPPRLPRPRPRPADCPRP | -0.082
17 | RRIRNRPPRLPRPRPRPLWEPRP | -0.106
18 | RRIRKRPPRLPRPRPRPMQKPRP | -0.00412
19 | RRIRSRPPRLPRPRPRPQEYPRP | -0.257
20 | RRIRYRPPRLPRPRPRPPERPRP | 0.251
21 | RRIRRRPPRLPRPRPRPCLFPRP | -0.0047
22 | RRIRERPPRLPRPRPRPVNKPRP | -0.31
23 | RRIRKRPPRLPRPRPRPFSSPRP | -0.219
24 | RRIRRRPPRLPRPRPRPQYHPRP | -0.145
25 | RRIRGRPPRLPRPRPRPDSAPRP | 0.525

Row | Sequence | shrunken log2 fold change
26 | RRIRKRPPRLPRPRPRPLRRPRP | 0.689
27 | RRIRCRPPRLPRPRPRPHTLPRP | -0.731
28 | RRIRYRPPRLPRPRPRPVSSPRP | -0.272
29 | RRIRPRPPRLPRPRPRPVYNPRP | 0.88
30 | RRIRCRPPRLPRPRPRPQWEPRP | 0.0667
31 | RRIRNRPPRLPRPRPRPQCTPRP | -0.123
32 | RRIRLRPPRLPRPRPRPPIHPRP | -0.117
33 | RRIRIRPPRLPRPRPRPEICPRP | -0.0162
34 | RRIRHRPPRLPRPRPRPSCCPRP | -0.343
35 | RRIRARPPRLPRPRPRPKGDPRP | -0.07
36 | RRIRMRPPRLPRPRPRPQIRPRP | -0.0442
37 | RRIRDRPPRLPRPRPRPLHDPRP | -0.0658
38 | RRIRPRPPRLPRPRPRPIEWPRP | 0.015
39 | RRIRHRPPRLPRPRPRPLNCPRP | -0.134
40 | RRIRHRPPRLPRPRPRPECAPRP | 0.249
41 | RRIRLRPPRLPRPRPRPVHIPRP | -0.182
42 | RRIRHRPPRLPRPRPRPVGPPRP | 0.195
43 | RRIRVRPPRLPRPRPRPVDDPRP | 0.177
44 | RRIRYRPPRLPRPRPRPNEPPRP | 0.00196
45 | RRIRSRPPRLPRPRPRPKEWPRP | -0.0193
46 | RRIRQRPPRLPRPRPRPGRHPRP | 0.0349
47 | RRIRQRPPRLPRPRPRPLGVPRP | 0.0233
48 | RRIRMRPPRLPRPRPRPSMCPRP | 0.0724
49 | RRIRARPPRLPRPRPRPNYEPRP | -0.22
50 | RRIRTRPPRLPRPRPRPDVYPRP | 0.00573

Row | Sequence | shrunken log2 fold change
51 | RRIRMRPPRLPRPRPRPVVWPRP | 1.57
52 | RRIRSRPPRLPRPRPRPRQSPRP | 0.113
53 | RRIRMRPPRLPRPRPRPWAAPRP | 0.502
54 | RRIRPRPPRLPRPRPRPGRGPRP | 0.611
55 | RRIRVRPPRLPRPRPRPPAAPRP | 0.397
56 | RRIRTRPPRLPRPRPRPWVEPRP | -0.297
57 | RRIRWRPPRLPRPRPRPTSVPRP | 0.233
58 | RRIRRRPPRLPRPRPRPIPAPRP | 0.804
59 | RRIRPRPPRLPRPRPRPCSTPRP | -0.173
60 | RRIRNRPPRLPRPRPRPAPEPRP | 0.948
61 | RRIRWRPPRLPRPRPRPQDKPRP | -0.208
62 | RRIRKRPPRLPRPRPRPDPVPRP | -0.146
63 | RRIRCRPPRLPRPRPRPHPPPRP | 0.809
64 | RRIRHRPPRLPRPRPRPYQFPRP | -0.0129
65 | RRIRFRPPRLPRPRPRPLQRPRP | 0.071
66 | RRIRKRPPRLPRPRPRPNWLPRP | 0.246
67 | RRIRCRPPRLPRPRPRPDVCPRP | -0.0548
68 | RRIRFRPPRLPRPRPRPDGIPRP | -0.255
69 | RRIRGRPPRLPRPRPRPICEPRP | 0.396
70 | RRIRRRPPRLPRPRPRPWYMPRP | -0.0284
71 | RRIRVRPPRLPRPRPRPNMDPRP | -0.506
72 | RRIRKRPPRLPRPRPRPKDWPRP | 0.742
73 | RRIRMRPPRLPRPRPRPWGVPRP | 0.187
74 | RRIRNRPPRLPRPRPRPDMLPRP | -0.116
75 | RRIRPRPPRLPRPRPRPGGYPRP | 0.25

Row | Sequence | shrunken log2 fold change
76 | RRIRPRPPRLPRPRPRPRDDPRP | 0.23
77 | RRIRQRPPRLPRPRPRPDRWPRP | 0.37
78 | RRIRMRPPRLPRPRPRPALIPRP | 0.136
79 | RRIRDRPPRLPRPRPRPIMPPRP | -0.0491
80 | RRIRNRPPRLPRPRPRPKPEPRP | 0.0739
81 | RRIRQRPPRLPRPRPRPVERPRP | -0.0839
82 | RRIRCRPPRLPRPRPRPMSEPRP | -0.0508
83 | RRIRERPPRLPRPRPRPYFWPRP | -0.143
84 | RRIRQRPPRLPRPRPRPRGGPRP | 0.484
85 | RRIRFRPPRLPRPRPRPGFCPRP | -0.179
86 | RRIRGRPPRLPRPRPRPAYDPRP | 0.326
87 | RRIRERPPRLPRPRPRPWHWPRP | -0.0299
88 | RRIRPRPPRLPRPRPRPPIEPRP | -0.0597
89 | RRIRIRPPRLPRPRPRPPWWPRP | 0.516
90 | RRIRLRPPRLPRPRPRPIYVPRP | -0.0939
91 | RRIRSRPPRLPRPRPRPLELPRP | 0.12
92 | RRIRCRPPRLPRPRPRPTMVPRP | -0.33
93 | RRIRLRPPRLPRPRPRPNIFPRP | 0.104
94 | RRIRGRPPRLPRPRPRPHYNPRP | -0.265
95 | RRIRNRPPRLPRPRPRPQEFPRP | -0.0043
96 | RRIRDRPPRLPRPRPRPTHYPRP | -0.103
97 | RRIRCRPPRLPRPRPRPRKCPRP | 0.0179
98 | RRIRARPPRLPRPRPRPDCPPRP | 0.337
99 | RRIRDRPPRLPRPRPRPQSAPRP | 0.138
100 | RRIRTRPPRLPRPRPRPLALPRP | -0.0853

Row | Sequence | shrunken log2 fold change
101 | RRIRIRPPRLPRPRPRPTPPPRP | 0.464
102 | RRIRLRPPRLPRPRPRPMSAPRP | 0.344
103 | RRIRCRPPRLPRPRPRPCVAPRP | 0.178
104 | RRIRSRPPRLPRPRPRPFQAPRP | 0.0408
105 | RRIRLRPPRLPRPRPRPHIWPRP | -0.278
106 | RRIRLRPPRLPRPRPRPTMMPRP | -0.282
107 | RRIRSRPPRLPRPRPRPFEHPRP | -0.0715
108 | RRIRCRPPRLPRPRPRPENQPRP | -0.0366
109 | RRIRWRPPRLPRPRPRPDKTPRP | -0.0185
110 | RRIRFRPPRLPRPRPRPASKPRP | 0.0916
111 | RRIRTRPPRLPRPRPRPQPKPRP | 0.151
112 | RRIRERPPRLPRPRPRPTPWPRP | 0.108
113 | RRIRDRPPRLPRPRPRPRWIPRP | -0.376
114 | RRIRWRPPRLPRPRPRPLETPRP | -0.0608
115 | RRIRERPPRLPRPRPRPSVAPRP | 0.132
116 | RRIRHRPPRLPRPRPRPCKAPRP | -0.0317
117 | RRIRFRPPRLPRPRPRPYILPRP | -1.31
118 | RRIRYRPPRLPRPRPRPKYFPRP | -0.314
119 | RRIRIRPPRLPRPRPRPVWYPRP | -0.84
120 | RRIRKRPPRLPRPRPRPNINPRP | -0.169
121 | RRIRFRPPRLPRPRPRPISDPRP | 0.0114
122 | RRIRLRPPRLPRPRPRPLHMPRP | -0.112
123 | RRIRCRPPRLPRPRPRPGKNPRP | -0.133
124 | RRIRDRPPRLPRPRPRPQARPRP | 1.05
125 | RRIRARPPRLPRPRPRPAAEPRP | 1.6

Row | Sequence | shrunken log2 fold change
126 | RRIRLRPPRLPRPRPRPCDPPRP | -0.14
127 | RRIRDRPPRLPRPRPRPTMPPRP | -0.121
128 | RRIRYRPPRLPRPRPRPIKRPRP | -0.767
129 | RRIRGRPPRLPRPRPRPVYCPRP | 0.0683
130 | RRIRTRPPRLPRPRPRPGNAPRP | -0.0554
131 | RRIRTRPPRLPRPRPRPTECPRP | -0.0493
132 | RRIRIRPPRLPRPRPRPKSVPRP | -0.0925
133 | RRIRIRPPRLPRPRPRPDEEPRP | -0.00176
134 | RRIRERPPRLPRPRPRPYTMPRP | -0.0431
135 | RRIRDRPPRLPRPRPRPLSDPRP | 0.125
136 | RRIRVRPPRLPRPRPRPIYKPRP | -0.535
137 | RRIRIRPPRLPRPRPRPPHYPRP | -0.707
138 | RRIRERPPRLPRPRPRPADIPRP | 0.033
139 | RRIRTRPPRLPRPRPRPRWEPRP | 0.0443
140 | RRIRVRPPRLPRPRPRPTQWPRP | 0.12
141 | RRIRHRPPRLPRPRPRPIDLPRP | 0.036
142 | RRIRSRPPRLPRPRPRPKYTPRP | -0.518
143 | RRIRRRPPRLPRPRPRPMICPRP | -0.0373
144 | RRIRARPPRLPRPRPRPRLDPRP | 0.291
145 | RRIRSRPPRLPRPRPRPSPHPRP | -0.194
146 | RRIRDRPPRLPRPRPRPPSYPRP | -0.222
147 | RRIRARPPRLPRPRPRPGLFPRP | 0.601
148 | RRIRIRPPRLPRPRPRPFRYPRP | -0.42
149 | RRIRGRPPRLPRPRPRPVFRPRP | 0.375
150 | RRIRERPPRLPRPRPRPFSAPRP | -0.161
